This assay addresses T1, human ERBB2 receptor (human, UniProt P04626 23-1255).
T1 construct: whole, on cells; Presented on human breast carcinoma cell lines with different ERBB2 levels; also called HER2; Neu-Erb
Kind of assay: flow cytometry on SK-BR-3 cells (FIG. 7 legend). As to the method:
Humanized heavy SEQ NO.1 and light chains SEQ. NO.2 or SEQ. […] The cells were cultured in Erlenmeyer flask in incubator at 37° C., 5% CO₂ on a shaker at 120 rpm for at least 14 days. The surnatants were purified through standard protein A resins. […] NO.1 and SEQ.
In general terms: Flow cytometry measures light scatter and fluorescence of single cells or particles in a stream.

B1: mAb W6/800 (antibody, V domains shown)
VH: QVQLQQSGAELMKPGASVKISCKATGYTFSNYWIEWVKQRPGHGLEWIGEILPGSGSTNYNEKLKGKATFTADTSSNTAYMQLSSLTSEDSGVYYCARGGGNYPYYFDYWGQGTTVTVSS
VL: IELMTQSHKFMSTSVGDRVSITCKASQDVGTAVAWYQQKPGQSPKLLIYWASTRHTGVPDRFTGSGSGTDFTLTISNVQSEDLADYFCQQYSSYRTFGAGTKLE
notes: Murine IgG2a purified from hybridoma cultures; they are assigned here by order and by likeness to the humanized VH and VL; also called murine W6/800; parental murine antibody
Turning to B1, the binding result was “binds”.

B2: humanized W6/800 antibody huW6/800 (antibody, V domains shown)
VH: QVQLVQSGAEVKKPGASVKISCKASGYTFSNYWIEWVRQAPGQGLEWMGEILPGSGSTNYNEKLKGRVTSTRDTSISTAYMELSRLRSDDTGVYYCARGGGNYPYYFDYWGQGTTVTVSS
VL: DIQMTQSPSTLSASVGDRVTITCKASQDVGTAVAWYQQKPGKAPKLLIYWASTRHTGVPSRFSGSGSGTEFTLTISSLQPDDFADYFCQQYSSYRTFGAGTKLEIK
notes: also called humanized antibody
For B2, the binding result was “binds”.

The values above are taken from patent US20190112387A1 (ISTITUTO BIOCHIMICO ITALIANO GIOVANNI LORENZINI S P A, published 2019).
